Where no end group is shown, it is not given here.
Legend:
Test in all cases: cell-based or functional assay
[1] = molecular target: OXER1 (UniProt Q8TDS5 1-384, limits assumed)
[2] = molecular target: PROKR1 (UniProt Q8TCW9 1-393)
[3] = molecular target: CALCR-RAMP2 (UniProt P30988 25-474; O60895 43-175, limits assumed)
[4] = molecular target: SSTR3 (UniProt P32745 1-418)
[5] = molecular target: P2RY12 (UniProt Q9H244 1-342)
[6] = molecular target: PTAFR (UniProt P25105 1-342)
[7] = molecular target: T1, HTR2C (UniProt P28335 33-458, limits assumed)
T1 sequence (looked up): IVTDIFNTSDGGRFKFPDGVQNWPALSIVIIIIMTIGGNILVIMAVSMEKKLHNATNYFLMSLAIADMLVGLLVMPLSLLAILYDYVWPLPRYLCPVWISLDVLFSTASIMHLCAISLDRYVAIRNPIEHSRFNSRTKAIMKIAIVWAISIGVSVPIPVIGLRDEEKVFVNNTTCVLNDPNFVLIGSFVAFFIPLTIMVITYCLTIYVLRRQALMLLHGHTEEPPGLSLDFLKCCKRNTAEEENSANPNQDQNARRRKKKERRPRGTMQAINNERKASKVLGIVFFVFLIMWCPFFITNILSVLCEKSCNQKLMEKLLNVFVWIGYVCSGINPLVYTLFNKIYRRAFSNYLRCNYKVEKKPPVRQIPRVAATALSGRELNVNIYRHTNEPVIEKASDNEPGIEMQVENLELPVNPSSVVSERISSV

[8] = molecular target: EDG3 (UniProt Q99500 1-378)
Sequence of EDG3 (Q99500 whole entry): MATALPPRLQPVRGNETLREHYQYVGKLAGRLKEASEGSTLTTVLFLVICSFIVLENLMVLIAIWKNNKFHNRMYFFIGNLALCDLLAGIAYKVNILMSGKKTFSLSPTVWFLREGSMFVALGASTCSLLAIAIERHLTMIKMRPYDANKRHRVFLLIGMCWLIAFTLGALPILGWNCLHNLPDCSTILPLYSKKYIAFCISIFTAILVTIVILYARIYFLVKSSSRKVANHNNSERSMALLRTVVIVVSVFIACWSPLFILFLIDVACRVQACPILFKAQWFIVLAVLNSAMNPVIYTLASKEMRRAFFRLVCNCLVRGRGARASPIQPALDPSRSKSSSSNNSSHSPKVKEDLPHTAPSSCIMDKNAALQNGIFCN

[9] = molecular target: T2, BRS3 (UniProt P32247 1-399)
T2 sequence (looked up): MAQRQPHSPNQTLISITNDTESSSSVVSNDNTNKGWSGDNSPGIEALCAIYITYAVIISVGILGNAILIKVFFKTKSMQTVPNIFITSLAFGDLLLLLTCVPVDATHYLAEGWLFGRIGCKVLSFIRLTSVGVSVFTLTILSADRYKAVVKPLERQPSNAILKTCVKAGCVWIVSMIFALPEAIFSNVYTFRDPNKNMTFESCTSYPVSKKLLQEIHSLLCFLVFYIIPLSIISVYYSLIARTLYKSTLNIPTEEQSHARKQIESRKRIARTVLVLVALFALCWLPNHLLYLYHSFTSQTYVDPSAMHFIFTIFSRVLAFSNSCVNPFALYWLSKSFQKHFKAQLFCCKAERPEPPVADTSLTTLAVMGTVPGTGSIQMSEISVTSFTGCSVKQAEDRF

[10] = molecular target: OPRL1 (UniProt P41146 1-370)
Sequence of OPRL1 (P41146 whole entry): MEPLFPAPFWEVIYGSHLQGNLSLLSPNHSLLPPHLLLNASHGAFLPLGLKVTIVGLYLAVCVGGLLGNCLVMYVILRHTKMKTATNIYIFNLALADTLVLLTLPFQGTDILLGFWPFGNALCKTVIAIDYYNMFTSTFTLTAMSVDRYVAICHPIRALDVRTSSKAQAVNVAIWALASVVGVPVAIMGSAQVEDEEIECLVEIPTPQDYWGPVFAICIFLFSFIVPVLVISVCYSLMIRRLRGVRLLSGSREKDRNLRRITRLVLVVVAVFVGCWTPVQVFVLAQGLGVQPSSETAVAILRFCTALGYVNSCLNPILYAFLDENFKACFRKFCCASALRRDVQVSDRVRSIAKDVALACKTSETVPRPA

[11] = molecular target: T3, TBXA2R (UniProt P21731 1-343, limits assumed)
T3 sequence (looked up): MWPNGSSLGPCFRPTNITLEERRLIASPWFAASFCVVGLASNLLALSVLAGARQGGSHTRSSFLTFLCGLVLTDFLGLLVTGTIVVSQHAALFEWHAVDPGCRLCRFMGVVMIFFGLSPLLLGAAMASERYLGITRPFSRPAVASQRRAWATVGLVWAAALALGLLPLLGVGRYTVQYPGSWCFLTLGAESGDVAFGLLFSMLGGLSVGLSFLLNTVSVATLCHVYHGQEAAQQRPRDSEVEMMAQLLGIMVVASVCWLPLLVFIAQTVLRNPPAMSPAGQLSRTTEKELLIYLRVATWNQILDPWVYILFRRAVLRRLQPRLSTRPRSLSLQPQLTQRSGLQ

[12] = molecular target: P2RY4 (UniProt P51582 1-365)
Sequence of P2RY4 (P51582 whole entry): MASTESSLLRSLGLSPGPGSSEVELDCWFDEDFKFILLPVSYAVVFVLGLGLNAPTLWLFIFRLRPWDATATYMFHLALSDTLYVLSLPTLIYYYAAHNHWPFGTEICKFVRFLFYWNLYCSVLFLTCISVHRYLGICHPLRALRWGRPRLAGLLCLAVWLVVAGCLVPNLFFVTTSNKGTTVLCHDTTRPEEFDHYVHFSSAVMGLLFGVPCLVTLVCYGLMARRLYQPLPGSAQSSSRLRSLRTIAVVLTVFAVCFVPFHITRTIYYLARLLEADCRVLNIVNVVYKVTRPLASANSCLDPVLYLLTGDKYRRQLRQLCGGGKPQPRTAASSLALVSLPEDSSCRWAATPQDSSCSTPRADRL

[13] = molecular target: PTHR2 (UniProt P49190 25-550)
Sequence of PTHR2 (P49190 25-550 limits assumed): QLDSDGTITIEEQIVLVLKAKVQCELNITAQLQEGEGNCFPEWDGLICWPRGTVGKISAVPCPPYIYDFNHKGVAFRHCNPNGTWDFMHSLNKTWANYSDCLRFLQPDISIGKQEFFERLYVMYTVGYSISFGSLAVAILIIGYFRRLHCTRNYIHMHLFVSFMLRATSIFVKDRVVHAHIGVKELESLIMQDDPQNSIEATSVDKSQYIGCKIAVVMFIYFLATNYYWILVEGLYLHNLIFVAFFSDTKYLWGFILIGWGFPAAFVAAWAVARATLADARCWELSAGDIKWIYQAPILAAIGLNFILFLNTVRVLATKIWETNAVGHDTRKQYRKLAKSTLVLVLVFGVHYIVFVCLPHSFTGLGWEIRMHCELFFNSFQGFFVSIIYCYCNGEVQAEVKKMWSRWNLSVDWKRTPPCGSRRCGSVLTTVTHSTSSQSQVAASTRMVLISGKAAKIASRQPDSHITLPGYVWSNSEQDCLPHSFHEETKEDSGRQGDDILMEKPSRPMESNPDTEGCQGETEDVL

[14] = molecular target: T4, CRTH2 (UniProt Q9Y5Y4 1-395)
T4 sequence (looked up): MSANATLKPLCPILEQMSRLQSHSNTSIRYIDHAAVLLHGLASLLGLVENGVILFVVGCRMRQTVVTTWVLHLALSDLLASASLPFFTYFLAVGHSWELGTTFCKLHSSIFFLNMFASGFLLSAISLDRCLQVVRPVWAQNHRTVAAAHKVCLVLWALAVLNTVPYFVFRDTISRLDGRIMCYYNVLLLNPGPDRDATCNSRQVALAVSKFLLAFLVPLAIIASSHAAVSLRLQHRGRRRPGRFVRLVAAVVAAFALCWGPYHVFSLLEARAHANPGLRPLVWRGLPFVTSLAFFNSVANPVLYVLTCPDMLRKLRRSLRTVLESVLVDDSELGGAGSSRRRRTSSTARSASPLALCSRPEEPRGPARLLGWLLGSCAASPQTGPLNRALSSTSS

[15] = molecular target: T5, C3AR1 (UniProt Q16581 1-482)
T5 sequence (looked up): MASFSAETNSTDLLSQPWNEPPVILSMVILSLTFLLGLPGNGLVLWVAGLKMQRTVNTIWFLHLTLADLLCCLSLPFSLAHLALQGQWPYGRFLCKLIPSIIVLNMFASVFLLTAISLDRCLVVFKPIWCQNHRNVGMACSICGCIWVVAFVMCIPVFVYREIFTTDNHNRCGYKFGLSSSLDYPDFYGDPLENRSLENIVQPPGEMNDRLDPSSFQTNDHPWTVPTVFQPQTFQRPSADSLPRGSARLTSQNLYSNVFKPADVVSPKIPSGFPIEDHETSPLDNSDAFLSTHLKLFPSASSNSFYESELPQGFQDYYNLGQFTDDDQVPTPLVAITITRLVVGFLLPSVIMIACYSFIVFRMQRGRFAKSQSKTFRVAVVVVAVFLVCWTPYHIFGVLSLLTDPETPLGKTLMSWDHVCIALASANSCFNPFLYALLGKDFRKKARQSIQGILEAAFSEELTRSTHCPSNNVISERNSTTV

[16] = molecular target: SSTR5 (UniProt P35346 1-364)
Sequence of SSTR5 (P35346 whole entry): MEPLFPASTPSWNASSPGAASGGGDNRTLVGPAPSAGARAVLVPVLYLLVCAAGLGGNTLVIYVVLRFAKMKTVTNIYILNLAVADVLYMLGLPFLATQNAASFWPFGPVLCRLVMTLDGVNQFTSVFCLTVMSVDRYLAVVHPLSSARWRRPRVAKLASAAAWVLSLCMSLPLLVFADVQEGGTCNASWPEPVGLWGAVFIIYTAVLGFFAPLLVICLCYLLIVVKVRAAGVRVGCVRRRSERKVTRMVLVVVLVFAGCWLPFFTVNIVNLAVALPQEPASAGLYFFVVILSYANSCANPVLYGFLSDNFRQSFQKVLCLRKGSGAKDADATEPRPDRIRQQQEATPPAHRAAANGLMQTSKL

Sequence of PROKR1 (Q8TCW9 whole entry): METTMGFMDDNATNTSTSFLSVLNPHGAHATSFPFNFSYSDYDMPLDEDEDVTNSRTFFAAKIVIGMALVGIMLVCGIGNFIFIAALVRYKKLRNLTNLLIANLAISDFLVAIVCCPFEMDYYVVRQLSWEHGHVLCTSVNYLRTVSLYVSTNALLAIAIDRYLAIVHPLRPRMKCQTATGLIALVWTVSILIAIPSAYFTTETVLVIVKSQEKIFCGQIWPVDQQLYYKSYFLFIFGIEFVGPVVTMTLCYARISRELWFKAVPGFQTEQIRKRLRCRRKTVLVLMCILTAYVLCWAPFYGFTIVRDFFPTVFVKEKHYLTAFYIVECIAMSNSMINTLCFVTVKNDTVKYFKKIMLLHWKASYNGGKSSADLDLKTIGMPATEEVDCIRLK
Sequence of P2RY12 (Q9H244 whole entry, one chain of several): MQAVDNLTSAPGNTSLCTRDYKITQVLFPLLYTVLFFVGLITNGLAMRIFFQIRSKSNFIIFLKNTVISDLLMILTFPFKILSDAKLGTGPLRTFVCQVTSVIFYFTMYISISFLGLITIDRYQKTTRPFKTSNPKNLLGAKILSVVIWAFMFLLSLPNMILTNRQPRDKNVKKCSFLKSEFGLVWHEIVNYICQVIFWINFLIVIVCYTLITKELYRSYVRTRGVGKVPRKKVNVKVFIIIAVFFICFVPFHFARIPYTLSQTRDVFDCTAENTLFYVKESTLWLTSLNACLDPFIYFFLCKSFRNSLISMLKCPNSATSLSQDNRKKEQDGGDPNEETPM
Sequence of OXER1 (Q8TDS5 whole entry): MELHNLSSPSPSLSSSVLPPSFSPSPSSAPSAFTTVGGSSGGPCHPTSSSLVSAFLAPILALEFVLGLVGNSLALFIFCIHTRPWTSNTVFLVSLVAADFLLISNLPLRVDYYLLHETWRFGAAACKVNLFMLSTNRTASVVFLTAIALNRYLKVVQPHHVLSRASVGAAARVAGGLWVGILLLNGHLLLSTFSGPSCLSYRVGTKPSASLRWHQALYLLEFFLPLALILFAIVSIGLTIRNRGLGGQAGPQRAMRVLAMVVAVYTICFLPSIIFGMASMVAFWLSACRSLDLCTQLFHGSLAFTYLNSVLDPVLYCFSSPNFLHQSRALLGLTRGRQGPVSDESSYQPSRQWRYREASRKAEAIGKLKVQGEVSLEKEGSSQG
Sequence of PTAFR (P25105 whole entry): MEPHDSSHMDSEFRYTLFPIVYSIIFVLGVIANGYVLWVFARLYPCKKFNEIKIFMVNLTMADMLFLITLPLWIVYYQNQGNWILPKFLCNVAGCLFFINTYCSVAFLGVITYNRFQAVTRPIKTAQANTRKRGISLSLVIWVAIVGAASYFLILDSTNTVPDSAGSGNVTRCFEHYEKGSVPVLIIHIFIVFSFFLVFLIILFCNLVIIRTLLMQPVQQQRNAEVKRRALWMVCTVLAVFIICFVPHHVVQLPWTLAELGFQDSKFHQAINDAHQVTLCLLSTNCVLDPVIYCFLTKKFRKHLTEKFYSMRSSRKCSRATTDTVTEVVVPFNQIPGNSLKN
Sequence of CALCR-RAMP2 (P30988 25-474 limits assumed, chain 1 of 2): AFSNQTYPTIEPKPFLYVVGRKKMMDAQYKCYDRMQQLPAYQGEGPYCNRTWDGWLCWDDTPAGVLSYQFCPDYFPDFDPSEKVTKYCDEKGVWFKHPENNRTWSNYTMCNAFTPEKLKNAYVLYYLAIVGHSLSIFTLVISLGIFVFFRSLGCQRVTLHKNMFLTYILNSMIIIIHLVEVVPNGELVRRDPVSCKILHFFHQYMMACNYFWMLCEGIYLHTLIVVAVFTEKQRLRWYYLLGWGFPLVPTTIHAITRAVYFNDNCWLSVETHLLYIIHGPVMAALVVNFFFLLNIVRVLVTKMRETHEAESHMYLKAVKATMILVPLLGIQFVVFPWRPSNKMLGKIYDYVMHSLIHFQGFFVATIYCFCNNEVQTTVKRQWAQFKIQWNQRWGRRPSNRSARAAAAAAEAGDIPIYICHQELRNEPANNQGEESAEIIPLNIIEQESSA
Sequence of CALCR-RAMP2 (O60895 43-175 limits assumed, chain 2 of 2): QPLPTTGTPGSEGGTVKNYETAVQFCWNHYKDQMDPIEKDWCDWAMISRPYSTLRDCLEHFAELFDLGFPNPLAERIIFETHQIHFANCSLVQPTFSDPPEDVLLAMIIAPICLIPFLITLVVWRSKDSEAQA
Sequence of SSTR3 (P32745 whole entry): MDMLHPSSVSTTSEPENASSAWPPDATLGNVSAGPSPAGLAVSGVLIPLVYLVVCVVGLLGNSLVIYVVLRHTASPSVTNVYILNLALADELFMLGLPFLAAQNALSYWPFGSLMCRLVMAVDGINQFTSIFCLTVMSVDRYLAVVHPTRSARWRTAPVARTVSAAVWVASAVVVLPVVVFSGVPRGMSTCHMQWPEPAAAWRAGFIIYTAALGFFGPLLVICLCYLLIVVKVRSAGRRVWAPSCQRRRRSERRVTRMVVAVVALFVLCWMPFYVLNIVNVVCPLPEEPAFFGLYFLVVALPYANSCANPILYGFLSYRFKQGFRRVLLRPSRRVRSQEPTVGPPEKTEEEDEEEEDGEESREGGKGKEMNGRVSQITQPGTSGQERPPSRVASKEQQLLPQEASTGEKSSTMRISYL

Binder: QATVGDVNTDRPGLLDLK (also: synthesised on Rink amide resin, C-terminal amide not given here outright) [octadecaneuropeptide (ODN)]
- % Activity, arrestin, antagonist mode, 2.5 uM [1]: -39.7%
- % Activity, arrestin, antagonist mode, 2.5 uM [2]: -12.4%
- % Activity, arrestin, antagonist mode, 2.5 uM [3]: -17.8%
- % Activity, arrestin, antagonist mode, 2.5 uM [4]: 4.2%
- % Activity, arrestin, antagonist mode, 2.5 uM [5]: -11%
- % Activity, arrestin, antagonist mode, 2.5 uM [6]: -7.3%
- % Activity, arrestin, antagonist mode, 2.5 uM [7]: 2.2%
- % Activity, arrestin, antagonist mode, 2.5 uM [8]: 15.4%
- % Activity, arrestin, antagonist mode, 2.5 uM [9]: -5.8%
- % Activity, arrestin, antagonist mode, 2.5 uM [10]: -5.6%
- % Activity, arrestin, antagonist mode, 2.5 uM [11]: 16.2%
- % Activity, arrestin, antagonist mode, 2.5 uM [12]: 12.9%
- % Activity, arrestin, antagonist mode, 2.5 uM [13]: 4.5%
- % Activity, arrestin, antagonist mode, 2.5 uM [14]: 0.6%
- % Activity, arrestin, antagonist mode, 2.5 uM [15]: 4%
- % Activity, arrestin, antagonist mode, 2.5 uM [16]: -17.3%

Reference: US20260184748A1 (University of Pennsylvania, published 2026)
